Columns and labels:
[Tn]-MalE-hGH = [Tn]-MalE-hGH (UniProt P01241)
IFNα2b[Tn] = IFNα2b[Tn] (UniProt P01563)
IFNα2b[Tn], sequence (P01563 whole entry, looked up): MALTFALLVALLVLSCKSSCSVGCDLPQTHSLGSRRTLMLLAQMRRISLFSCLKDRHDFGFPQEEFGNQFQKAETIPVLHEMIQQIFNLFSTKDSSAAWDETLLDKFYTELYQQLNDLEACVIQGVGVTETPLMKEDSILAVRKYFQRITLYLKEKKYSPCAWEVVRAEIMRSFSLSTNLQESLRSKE

[Tn]-MalE-hGH, sequence (P01241 27-217): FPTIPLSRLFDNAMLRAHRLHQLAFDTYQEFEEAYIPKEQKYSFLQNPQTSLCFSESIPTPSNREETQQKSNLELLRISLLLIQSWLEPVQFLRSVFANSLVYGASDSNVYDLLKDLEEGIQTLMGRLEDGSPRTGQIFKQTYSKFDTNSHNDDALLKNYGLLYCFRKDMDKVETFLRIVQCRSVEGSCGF

| Substance | PNA blot after the galactosylation reaction ([Tn]-MalE-hGH) | MALDI mass of the galactosylated protein (IFNα2b[Tn]) | CE-MS mass shift of the peptide (IFNα2b[Tn]-FCHASE) | Specific Activity (mU/mg) on 1 mM IFNα2b[Tn]-FCHASE (IFNα2b[Tn]-FCHASE) [mU/mg] | percent of IFNα2b[Tn]-FCHASE converted into IFNα2b[T-Ag]-FCHASE after 30 minutes (capillary electrophoresis) (IFNα2b[Tn]-FCHASE) |
| --- | --- | --- | --- | --- | --- |
| CgtB11168 (Δ30, C-terminal MalE) | Increased staining in Lane D after PNA blotting |  |  |  |  |
| CgtBOH4384 (Δ30, C-terminal MalE) |  | The presence of the species at m/z 19665 is the proof that the IFNα2b[Tn] protein can be galactosylated by CJL-136 | the molecular weight of IFNα2b[T-Ag]-FCHASE was 162 Dalton higher than that of IFNα2b[Tn]-FCHASE | 272 | 91.9% of the material had been converted into IFNα2b[T-Ag]-FCHASE |
| CgtBOH4384 (Δ30, N-terminal MalE) |  |  |  | 14 |  |

Source: patent US20110111454
